# How the values were obtained:
# [1] = target: bRSV RB94 DSCav1 (bovine respiratory syncytial virus, strain RB94) (UniProt P23728)
# [2] = target: 391-2 hu/bov-DS-Cav1-BZGJ9 Long; assay: ELISA, variant from culture supernatant on Ni-NTA plate
# [3] = target: 391-2 sc9 DS-Cav1 98C-362C; assay: as above
# [4] = target: 391-2-DS-Cav1-BZGJ9 Long K226L; assay: as above
# [5] = target: 391-2-DS-Cav1-BZGJ9 Long S190V; assay: as above
# 391-2-DS-Cav1-BZGJ9_gyc5 = assay: as above
# 391-2-DS-Cav1-IP-4 = assay: as above
# 391-2-DS-Cav1-IP-5 = assay: as above
# [6] = target: 391-2-DS-Cav1-sc9 99C-361C; assay: as above
# [7] = target: 391-2-DS-Cav1-sc9deleteFS 98C-362C; assay: as above
# [8] = target: 391-2-DS-Cav1-sc9deleteFS 99C-361C; assay: as above
# [9] = target: 391-2-DS-Cav1-sc9deleteFS 99C-362C; assay: as above
# [10] = target: 391-2-DS-Cav1_ I28C-G464C; assay: as above
# [11] = target: 391-2-DS-Cav1_ sc9_I28C-G464C; assay: as above
# [12] = target: 391-2-DS-Cav1_ sc9_S398C-S485C; assay: as above
# [13] = target: 391-2-DS-Cav1_ sc9_S485C-A490C; assay: as above
# [14] = target: 391-2-DS-Cav1_ sc9_T449C-V459C; assay: as above
# [15] = target: 391-2-site 0 hRSV DSCav1-BZGJ9 Long; assay: as above
# 391-2_DS-Cav1-tzsc5 = assay: as above
# 391-2wt-F_SC_11R = assay: as above
# 391-2wt_F-SC_12R core = assay: as above
# [16] = target: RB94 DS-CAV1 T369C-T455C Long; assay: as above
# [17] = target: RB94 dscav1T369C-T455C Long S190V; assay: as above
# [18] = target: RB94 hu/bov DS-Cav1 Long FdPL; assay: as above
# [19] = target: RB94 sc9 DS-CAV1 A149C-Y458C L373R Long S190V; assay: as above
# [20] = target: RB94 sc9 DS-CAV1 A149C-Y458C L373R; assay: as above
# [21] = target: RB94 sc9 DS-CAV1 N183GC-N428C L373R Long S190V; assay: as above
# [22] = target: RB94 sc9 DS-CAV1 N183GC-N428C L373R Long; assay: as above
# [23] = target: RB94 sc9 DS-CAV1 N183GC-N428C L373R; assay: as above
# [24] = target: RB94 site 0 hRSV DS-Cav1 Long FdPL; assay: as above
# [25] = target: RB94 site 0 hRSV DS-Cav1-BZGJ9 Long FdPL; assay: as above
# [26] = target: RB94 site 0 hRSV bovSurf DS-Cav1 Long FdPL; assay: as above
# [27] = target: RB94 site 0 hRSV bovSurf DS-Cav1-BZGJ9 Long FdPL; assay: as above
# [28] = target: sc9-10_DS-CAV1_bRSV(RB94)_Fd_hp1_fp1_ig1; assay: as above
# [29] = target: sc9-10_DS-CAV1_bRSV(RB94)_Fd_hp1_fp2_ig1; assay: as above
# [30] = target: sc9-10_DS-CAV1_bRSV(RB94)_Fd_hp1_ig1; assay: as above
# [31] = target: sc9-10_DS-CAV1_bRSV(RB94)_Fd_hp2_fp1_ig1; assay: as above
# [32] = target: sc9-10_DS-CAV1_bRSV(RB94)_Fd_hp2_ig1; assay: as above
# [33] = target: sc9-10_DS-CAV1_bRSV(RB94)_Fd_pm1_fp1_ig1; assay: as above
substance,measurement,setting,value
motavizumab (antibody),ELISA binding value,[1],0.371
same,ELISA binding value,[2],1.7
same,ELISA binding value,[3],0.75
same,ELISA binding value,[4],1.94
same,ELISA binding value,[5],1.31
same,ELISA binding value,391-2-DS-Cav1-BZGJ9_gyc5,2.04
same,ELISA binding value,391-2-DS-Cav1-IP-4,0.933
same,ELISA binding value,391-2-DS-Cav1-IP-5,1.83
same,ELISA binding value,[6],1.68
same,ELISA binding value,[7],0.589
same,ELISA binding value,[8],0.606
same,ELISA binding value,[9],0.612
same,ELISA binding value,[10],1.21
same,ELISA binding value,[11],0.569
same,ELISA binding value,[12],0.487
same,ELISA binding value,[13],0.595
same,ELISA binding value,[14],0.49
same,ELISA binding value,[15],2.08
same,ELISA binding value,391-2_DS-Cav1-tzsc5,1.57
same,ELISA binding value,391-2wt-F_SC_11R,1.79
same,ELISA binding value,391-2wt_F-SC_12R core,0.821
same,ELISA binding value,[16],0.448
same,ELISA binding value,[17],0.511
same,ELISA binding value,[18],1.44
same,ELISA binding value,[19],0.537
same,ELISA binding value,[20],0.564
same,ELISA binding value,[21],0.617
same,ELISA binding value,[22],0.488
same,ELISA binding value,[23],1.04
same,ELISA binding value,[24],1.75
same,ELISA binding value,[25],2.26
same,ELISA binding value,[26],1.86
same,ELISA binding value,[27],2.21
same,ELISA binding value,[28],2.22
same,ELISA binding value,[29],1.8
same,ELISA binding value,[30],2.42
same,ELISA binding value,[31],2.18
same,ELISA binding value,[32],2.52
same,ELISA binding value,[33],1.81

# — patent publication US20190330277A1
